Substitutions are numbered along the chain they refer to. Values belong to the binder of their own block, whether it stands above or below them.
Key:
BSA-glutathione (bovine) [1] = molecular target: BSA-glutathione (bovine) (UniProt P02769); assay: ELISA, culture supernatant on BSA-GSH plates without mercury
BSA-glutathione (bovine) [2] = molecular target: BSA-glutathione (bovine) (UniProt P02769); assay: ELISA, culture fluid on glutathione-BSA (column Glutathione)
BSA-glutathione (bovine) [3] = molecular target: BSA-glutathione (bovine) (UniProt P02769); assay: ELISA, subclone culture fluid on BSA-glutathione, average of triplicates

absorbance at 405 nm (absorbance at 405 nm) (BSA-glutathione (bovine) [1]): 0.028
B1: monoclonal antibody 5G4 (antibody, V domains shown)
VH: SVPARLKPGASVRISCKASAYSFTGYFMNWMKQSHGKTLEWIGRINPYNGDTFYNQKFKSKATVTVDKSSSTAHMELLSLTSEDSAVYYCGTQPLDYWGQGTTLTVSS
VL: DIQMTQSPSSLSASLGERVTLTCRASQDIGSSLNWLQLKPDGTIKRLIYATSGLDSGVPKRFSGSRSGSDYSLTINSPESEDFVDYYCLQCSNSPYTFGGGTKLEIK

absorbance at 405 nm (absorbance at 405 nm) (BSA-glutathione (bovine) [1]): 0.168
B3: monoclonal antibody 23F8 (antibody, V domains shown)
VH: SGPELVKTGASVKISCKASGYSFTGYYMHWVKQSHGKSLEWIGYISCYNGATSYNQKFKGKATFTVDTSSSTAYMQFNSLTSEDSAVYYCARSGIYDVTTTLTTGAKAPLSQSP
VL: DIQMTQSPSSLSASLGGKVTITCKASQDINKYIAWYQHKPGKGPRLLIHYTSTLQPGIPSRFSGSGSGRDYSFSISNPEPEDIATYYCLQYDNSLFTFGSGTKLEIK

The remaining lines, values behind:

B2: monoclonal antibody 4A10 (antibody, V domains shown)
VH: EVQLQQSGPELVKPGALVKISCKASGYTFTSYDINWVKQRPGQGLEWIGWIYPGDGSTKYNEKFKGKATLTADKSSSTAYMQLSSLTSENSAVYFCARCGYAMDYWGQGTSVTVSS
VL: DVLMTQTPLSLPVSLGDQASISCRSSQSIVHSNGNTYLEWYLQKPGQSPKLLIYKVSNRFSGVPDRFSGSGSGTDFTLKISRAEAEDLGVYYCFQGSHVRYTFGGGTKLEIK
absorbance at 405 nm (absorbance at 405 nm) (BSA-glutathione (bovine) [2]): 0.4 | absorbance at 405 nm (absorbance at 405 nm) (BSA-glutathione (bovine) [3]): 0.322 | absorbance at 405 nm (absorbance at 405 nm) (BSA-glutathione (bovine) [1]): 0.078

B4: monoclonal antibody 1C11 (antibody, V domains shown)
VH: SGAELVKPGASVKLSCKTSGYTVTSYWMGWVKQRPGQGLEWIGNIYPDSGTTNYNEKFKNKATLTVDTFSSTVYMQLSSLTSEDSAVYYCARGVYSYYSYDVYAMDYWGQGTSVTVSS
VL: DLVLTQSPPSLAVSLGQRSTISCRSSQSIVHSNGNTYLHWYQQNPGQPPKLLIKYASNLESGVPARFSGSGSGTDFTLNIHPAEVEDSATYFCQHSWEIPPTFGGGTKLEIK
absorbance at 405 nm (absorbance at 405 nm) (BSA-glutathione (bovine) [1]): 0.094

B5: monoclonal antibody 2D5 (antibody, V domains shown)
VH: SGGGSVKPGGSLKLSCAASGFTFSSCAMSWVRQTPEKRLEWVATISSGGSYTYYPDSVKGRFTIFRHNAENTLYLQMSSLRSEDTAIYYCVRQDGYYGNYVWFAYWGQGTLVTVSA
VL: ELVMTQSPASLSASVGETVTITCRASENIYGYLAWYQQKQGKSPLPRVYNAKTLAEDVSSRVSGSGSGTQFSLKIRTSQPEDFGTYYCQHHYGTPYTFGGGTKLEIK
absorbance at 405 nm (absorbance at 405 nm) (BSA-glutathione (bovine) [1]): 0.09

B6: monoclonal antibody 5B6 (antibody, V domains shown)
VH: B5 VH with C26R, F65S, L75F, D94T, V101E, T110L
VL: B1 VL with K107N
absorbance at 405 nm (absorbance at 405 nm) (BSA-glutathione (bovine) [1]): 0.019
